Patent publication US20260049138A1 (Chugai, published 2026)

Target: T1, CD3ε homodimer protein (human, UniProt P07766 23-126, limits assumed)
T1 construct: also called CD3 (CD3ε)
Test: SPR Biacore T200, CD3ε homodimer on chip;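 also: Light-chain single-residue variant antibodies injected over amine-coupled CD3ε homodimer on a CM4 chip at 25 °C, bound amount divided by that of the GLS3000-containing antibody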
Description: Each one-amino acid altered form constructed, expressed, and purified in the paragraph (6-2) was evaluated using Biacore T200 (GE Healthcare Japan Corp.). An appropriate amount of CD3ε homodimer protein was immobilized onto Sensor chip CM4 (GE Healthcare Japan Corp.) by the amine coupling method. Then, the antibody having an appropriate concentration was injected thereto as an analyte and allowed to interact with the CD3ε homodimer protein on the sensor chip. Then, the sensor chip was regenerated by the injection of 10 mmol/L glycine-HCl (pH 1.5). The assay was conducted at 25° C., and HBS-EP+ (GE Healthcare Japan Corp.) was used as a running buffer. […] Each parameter was calculated using Biacore T200 Evaluation Software (GE Healthcare Japan Corp.).
Specifically, when the amount of the GLS3000-containing antibody bound was defined as X and the amount of the L chain one-amino acid altered form bound was defined as Y, a value of Z (ratio of amounts bound)=Y/X was used.

T1 sequence (P07766 23-126 limits assumed): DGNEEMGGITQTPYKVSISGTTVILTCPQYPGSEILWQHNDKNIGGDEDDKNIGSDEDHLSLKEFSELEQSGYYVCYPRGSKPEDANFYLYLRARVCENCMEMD

Row | Binder | ratio of amount bound vs unaltered GLS3000
1 | GLS3000 V51P one-arm antibody (antibody, human IgG1, kappa, L234A L235A, N297A, name in Kabat numbering) heavy: QVQLVESGGGVVQPGRSLRLSCAASGFTFSNAWMHWVRQAPGKGLEWVAQIKAKSNNYATYYAESVKGRFTISRDDSKNSLYLQMNSLKTEDTAVYYCRYVHYGAYYGVDAWGQGTTVTVSSASTKGPSVFPLAPSSKSTSGGTAALGCLVKDYFPEPVTVSWNSGALTSGVHTFPAVLQSSGLYSLSSVVTVPSSSLGTQTYICNVNHKPSNTKVDKKVEPKSCDKTHTCPPCPAPEAAGGPSVFLFPPKPKDTLMISRTPEVTCVVVDVSHEDPEVKFNWYVDGVEVHNAKTKPREEQYASTYRVVSVLTVLHQDWLNGKEYKCKVSNKALPAPIEKTISKAKGQPREPQVYTLPPSRCELTKNQVSLSCAVKGFYPSDIAVEWESNGQPENNYKTTPPVLDSDGSFFLVSKLTVDKSRWQQGNVFSCSVMHEALHNHYTQKSLSLSPDYKDDDDK EPKSSDKTHTCPPCPAPELLGGPSVFLFPPKPKDTLMISRTPEVTCVVVDVSHEDPEVKFNWYVDGVEVHNAKTKPREEQYNSTYRVVSVLTVLHQDWLNGKEYKCKVSNKALPAPIEKTISKAKGQPREPQVCTLPPSRDELTKNQVSLWCLVKGFYPSDIAVEWESNGQPENNYKTTPPVLDSDGSFFLYSKLTVDKSRWQQGNVFSCSVMHEALHNRYTQKSLSLSP light: DIVMTQSPLSLPVTPGEPASISCRSSQSLVHSNRNTYLHWYQQKPGQAPRLLIYKPSNRFSGVPDRFSGSGSGTDFTLKISRVEAEDVGVYYCGQGTQVPYTFGQGTKLEIKRTVAAPSVFIFPPSDEQLKSGTASVVCLLNNFYPREAKVQWKVDNALQSGNSQESVTEQDSKDSTYSLSSTLTLSKADYEKHKVYACEVTHQGLSSPVTKSFNRGEC | 0.32
2 | GLS3000 V94A one-arm antibody (antibody, human IgG1, kappa, L234A L235A, N297A, name in Kabat numbering) heavy: QVQLVESGGGVVQPGRSLRLSCAASGFTFSNAWMHWVRQAPGKGLEWVAQIKAKSNNYATYYAESVKGRFTISRDDSKNSLYLQMNSLKTEDTAVYYCRYVHYGAYYGVDAWGQGTTVTVSSASTKGPSVFPLAPSSKSTSGGTAALGCLVKDYFPEPVTVSWNSGALTSGVHTFPAVLQSSGLYSLSSVVTVPSSSLGTQTYICNVNHKPSNTKVDKKVEPKSCDKTHTCPPCPAPEAAGGPSVFLFPPKPKDTLMISRTPEVTCVVVDVSHEDPEVKFNWYVDGVEVHNAKTKPREEQYASTYRVVSVLTVLHQDWLNGKEYKCKVSNKALPAPIEKTISKAKGQPREPQVYTLPPSRCELTKNQVSLSCAVKGFYPSDIAVEWESNGQPENNYKTTPPVLDSDGSFFLVSKLTVDKSRWQQGNVFSCSVMHEALHNHYTQKSLSLSPDYKDDDDK EPKSSDKTHTCPPCPAPELLGGPSVFLFPPKPKDTLMISRTPEVTCVVVDVSHEDPEVKFNWYVDGVEVHNAKTKPREEQYNSTYRVVSVLTVLHQDWLNGKEYKCKVSNKALPAPIEKTISKAKGQPREPQVCTLPPSRDELTKNQVSLWCLVKGFYPSDIAVEWESNGQPENNYKTTPPVLDSDGSFFLYSKLTVDKSRWQQGNVFSCSVMHEALHNRYTQKSLSLSP light: DIVMTQSPLSLPVTPGEPASISCRSSQSLVHSNRNTYLHWYQQKPGQAPRLLIYKVSNRFSGVPDRFSGSGSGTDFTLKISRVEAEDVGVYYCGQGTQAPYTFGQGTKLEIKRTVAAPSVFIFPPSDEQLKSGTASVVCLLNNFYPREAKVQWKVDNALQSGNSQESVTEQDSKDSTYSLSSTLTLSKADYEKHKVYACEVTHQGLSSPVTKSFNRGEC | 1.05
3 | GLS3000 V94D one-arm antibody (antibody, human IgG1, kappa, L234A L235A, N297A, name in Kabat numbering) heavy: QVQLVESGGGVVQPGRSLRLSCAASGFTFSNAWMHWVRQAPGKGLEWVAQIKAKSNNYATYYAESVKGRFTISRDDSKNSLYLQMNSLKTEDTAVYYCRYVHYGAYYGVDAWGQGTTVTVSSASTKGPSVFPLAPSSKSTSGGTAALGCLVKDYFPEPVTVSWNSGALTSGVHTFPAVLQSSGLYSLSSVVTVPSSSLGTQTYICNVNHKPSNTKVDKKVEPKSCDKTHTCPPCPAPEAAGGPSVFLFPPKPKDTLMISRTPEVTCVVVDVSHEDPEVKFNWYVDGVEVHNAKTKPREEQYASTYRVVSVLTVLHQDWLNGKEYKCKVSNKALPAPIEKTISKAKGQPREPQVYTLPPSRCELTKNQVSLSCAVKGFYPSDIAVEWESNGQPENNYKTTPPVLDSDGSFFLVSKLTVDKSRWQQGNVFSCSVMHEALHNHYTQKSLSLSPDYKDDDDK EPKSSDKTHTCPPCPAPELLGGPSVFLFPPKPKDTLMISRTPEVTCVVVDVSHEDPEVKFNWYVDGVEVHNAKTKPREEQYNSTYRVVSVLTVLHQDWLNGKEYKCKVSNKALPAPIEKTISKAKGQPREPQVCTLPPSRDELTKNQVSLWCLVKGFYPSDIAVEWESNGQPENNYKTTPPVLDSDGSFFLYSKLTVDKSRWQQGNVFSCSVMHEALHNRYTQKSLSLSP light: DIVMTQSPLSLPVTPGEPASISCRSSQSLVHSNRNTYLHWYQQKPGQAPRLLIYKVSNRFSGVPDRFSGSGSGTDFTLKISRVEAEDVGVYYCGQGTQDPYTFGQGTKLEIKRTVAAPSVFIFPPSDEQLKSGTASVVCLLNNFYPREAKVQWKVDNALQSGNSQESVTEQDSKDSTYSLSSTLTLSKADYEKHKVYACEVTHQGLSSPVTKSFNRGEC | 0.89
4 | GLS3000 V94E one-arm antibody (antibody, human IgG1, kappa, L234A L235A, N297A, name in Kabat numbering) heavy: QVQLVESGGGVVQPGRSLRLSCAASGFTFSNAWMHWVRQAPGKGLEWVAQIKAKSNNYATYYAESVKGRFTISRDDSKNSLYLQMNSLKTEDTAVYYCRYVHYGAYYGVDAWGQGTTVTVSSASTKGPSVFPLAPSSKSTSGGTAALGCLVKDYFPEPVTVSWNSGALTSGVHTFPAVLQSSGLYSLSSVVTVPSSSLGTQTYICNVNHKPSNTKVDKKVEPKSCDKTHTCPPCPAPEAAGGPSVFLFPPKPKDTLMISRTPEVTCVVVDVSHEDPEVKFNWYVDGVEVHNAKTKPREEQYASTYRVVSVLTVLHQDWLNGKEYKCKVSNKALPAPIEKTISKAKGQPREPQVYTLPPSRCELTKNQVSLSCAVKGFYPSDIAVEWESNGQPENNYKTTPPVLDSDGSFFLVSKLTVDKSRWQQGNVFSCSVMHEALHNHYTQKSLSLSPDYKDDDDK EPKSSDKTHTCPPCPAPELLGGPSVFLFPPKPKDTLMISRTPEVTCVVVDVSHEDPEVKFNWYVDGVEVHNAKTKPREEQYNSTYRVVSVLTVLHQDWLNGKEYKCKVSNKALPAPIEKTISKAKGQPREPQVCTLPPSRDELTKNQVSLWCLVKGFYPSDIAVEWESNGQPENNYKTTPPVLDSDGSFFLYSKLTVDKSRWQQGNVFSCSVMHEALHNRYTQKSLSLSP light: DIVMTQSPLSLPVTPGEPASISCRSSQSLVHSNRNTYLHWYQQKPGQAPRLLIYKVSNRFSGVPDRFSGSGSGTDFTLKISRVEAEDVGVYYCGQGTQEPYTFGQGTKLEIKRTVAAPSVFIFPPSDEQLKSGTASVVCLLNNFYPREAKVQWKVDNALQSGNSQESVTEQDSKDSTYSLSSTLTLSKADYEKHKVYACEVTHQGLSSPVTKSFNRGEC | 0.5

The next lines start with the values.

Row | ratio of amount bound vs unaltered GLS3000 | Binder
5 | 0.71 | GLS3000 V94F one-arm antibody (antibody, human IgG1, kappa, L234A L235A, N297A, name in Kabat numbering) heavy: QVQLVESGGGVVQPGRSLRLSCAASGFTFSNAWMHWVRQAPGKGLEWVAQIKAKSNNYATYYAESVKGRFTISRDDSKNSLYLQMNSLKTEDTAVYYCRYVHYGAYYGVDAWGQGTTVTVSSASTKGPSVFPLAPSSKSTSGGTAALGCLVKDYFPEPVTVSWNSGALTSGVHTFPAVLQSSGLYSLSSVVTVPSSSLGTQTYICNVNHKPSNTKVDKKVEPKSCDKTHTCPPCPAPEAAGGPSVFLFPPKPKDTLMISRTPEVTCVVVDVSHEDPEVKFNWYVDGVEVHNAKTKPREEQYASTYRVVSVLTVLHQDWLNGKEYKCKVSNKALPAPIEKTISKAKGQPREPQVYTLPPSRCELTKNQVSLSCAVKGFYPSDIAVEWESNGQPENNYKTTPPVLDSDGSFFLVSKLTVDKSRWQQGNVFSCSVMHEALHNHYTQKSLSLSPDYKDDDDK EPKSSDKTHTCPPCPAPELLGGPSVFLFPPKPKDTLMISRTPEVTCVVVDVSHEDPEVKFNWYVDGVEVHNAKTKPREEQYNSTYRVVSVLTVLHQDWLNGKEYKCKVSNKALPAPIEKTISKAKGQPREPQVCTLPPSRDELTKNQVSLWCLVKGFYPSDIAVEWESNGQPENNYKTTPPVLDSDGSFFLYSKLTVDKSRWQQGNVFSCSVMHEALHNRYTQKSLSLSP light: DIVMTQSPLSLPVTPGEPASISCRSSQSLVHSNRNTYLHWYQQKPGQAPRLLIYKVSNRFSGVPDRFSGSGSGTDFTLKISRVEAEDVGVYYCGQGTQFPYTFGQGTKLEIKRTVAAPSVFIFPPSDEQLKSGTASVVCLLNNFYPREAKVQWKVDNALQSGNSQESVTEQDSKDSTYSLSSTLTLSKADYEKHKVYACEVTHQGLSSPVTKSFNRGEC
6 | 0.48 | GLS3000 V94G one-arm antibody (antibody, human IgG1, kappa, L234A L235A, N297A, name in Kabat numbering) heavy: QVQLVESGGGVVQPGRSLRLSCAASGFTFSNAWMHWVRQAPGKGLEWVAQIKAKSNNYATYYAESVKGRFTISRDDSKNSLYLQMNSLKTEDTAVYYCRYVHYGAYYGVDAWGQGTTVTVSSASTKGPSVFPLAPSSKSTSGGTAALGCLVKDYFPEPVTVSWNSGALTSGVHTFPAVLQSSGLYSLSSVVTVPSSSLGTQTYICNVNHKPSNTKVDKKVEPKSCDKTHTCPPCPAPEAAGGPSVFLFPPKPKDTLMISRTPEVTCVVVDVSHEDPEVKFNWYVDGVEVHNAKTKPREEQYASTYRVVSVLTVLHQDWLNGKEYKCKVSNKALPAPIEKTISKAKGQPREPQVYTLPPSRCELTKNQVSLSCAVKGFYPSDIAVEWESNGQPENNYKTTPPVLDSDGSFFLVSKLTVDKSRWQQGNVFSCSVMHEALHNHYTQKSLSLSPDYKDDDDK EPKSSDKTHTCPPCPAPELLGGPSVFLFPPKPKDTLMISRTPEVTCVVVDVSHEDPEVKFNWYVDGVEVHNAKTKPREEQYNSTYRVVSVLTVLHQDWLNGKEYKCKVSNKALPAPIEKTISKAKGQPREPQVCTLPPSRDELTKNQVSLWCLVKGFYPSDIAVEWESNGQPENNYKTTPPVLDSDGSFFLYSKLTVDKSRWQQGNVFSCSVMHEALHNRYTQKSLSLSP light: DIVMTQSPLSLPVTPGEPASISCRSSQSLVHSNRNTYLHWYQQKPGQAPRLLIYKVSNRFSGVPDRFSGSGSGTDFTLKISRVEAEDVGVYYCGQGTQGPYTFGQGTKLEIKRTVAAPSVFIFPPSDEQLKSGTASVVCLLNNFYPREAKVQWKVDNALQSGNSQESVTEQDSKDSTYSLSSTLTLSKADYEKHKVYACEVTHQGLSSPVTKSFNRGEC
